Source: paper PMC2195994 (The Journal of Cell Biology, 2001)

T1: GST–IRS-58 (1–358) (human, UniProt Q9UQB8 1-358)
T1 sequence (looked up): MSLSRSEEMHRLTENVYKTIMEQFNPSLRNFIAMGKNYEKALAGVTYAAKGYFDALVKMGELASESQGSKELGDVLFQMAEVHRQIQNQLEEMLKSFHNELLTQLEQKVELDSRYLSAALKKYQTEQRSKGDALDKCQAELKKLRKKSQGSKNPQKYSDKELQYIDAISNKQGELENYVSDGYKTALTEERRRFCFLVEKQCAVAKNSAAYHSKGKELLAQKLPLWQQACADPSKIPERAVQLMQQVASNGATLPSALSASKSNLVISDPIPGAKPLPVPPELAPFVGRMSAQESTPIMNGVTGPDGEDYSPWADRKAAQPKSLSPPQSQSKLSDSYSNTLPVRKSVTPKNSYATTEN

T2: GST–IRS-58 (1–432) (human, UniProt Q9UQB8 1-432)
T2 sequence (looked up): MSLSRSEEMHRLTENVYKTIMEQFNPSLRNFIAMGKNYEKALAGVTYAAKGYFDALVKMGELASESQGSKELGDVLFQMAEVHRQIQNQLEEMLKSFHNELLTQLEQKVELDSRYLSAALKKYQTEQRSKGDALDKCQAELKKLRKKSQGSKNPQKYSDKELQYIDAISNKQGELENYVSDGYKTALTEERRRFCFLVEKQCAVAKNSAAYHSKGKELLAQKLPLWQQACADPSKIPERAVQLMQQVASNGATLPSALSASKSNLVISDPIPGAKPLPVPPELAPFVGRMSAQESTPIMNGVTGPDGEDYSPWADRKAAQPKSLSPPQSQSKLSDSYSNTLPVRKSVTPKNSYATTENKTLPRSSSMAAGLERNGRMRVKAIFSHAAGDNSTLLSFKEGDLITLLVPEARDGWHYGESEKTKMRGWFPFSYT

B1: Cdc42HsQ61L (natural protein)
chain: not shown
B2: IRS-58–GST fusion protein (202–305 amino acid residues) (domain or fragment, human, UniProt Q9UQB8 202-305, looked up)
chain: CAVAKNSAAYHSKGKELLAQKLPLWQQACADPSKIPERAVQLMQQVASNGATLPSALSASKSNLVISDPIPGAKPLPVPPELAPFVGRMSAQESTPIMNGVTGP

Columns and labels:
Experiment in all cases: far-Western, overlay or dot blot
[1] = molecular target: T1, GST–IRS-58 (1–358)
[2] = molecular target: T2, GST–IRS-58 (1–432)
[3] = molecular target: Cdc42Hs L61C40 (human, UniProt P60953-1 1-191, L61 | C40)
[4] = molecular target: B1

binding result [1]	binding result [2]	binding result [3]	binding result [4]	Binder
binds	binds			B1
		binds	binds	B2
